Experimental findings from patent publication US20090104149A1 are described below.

The target of this assay is human recombinant cyclophilin (human) (UniProt P62937). Nature of the assay: competitive ELISA, human recombinant cyclophilin on coated BSA-cyclosporin A; reference cyclosporin A. Background: ELISA stands for enzyme-linked immunosorbent assay.
human recombinant cyclophilin (human), sequence (P62937 whole entry): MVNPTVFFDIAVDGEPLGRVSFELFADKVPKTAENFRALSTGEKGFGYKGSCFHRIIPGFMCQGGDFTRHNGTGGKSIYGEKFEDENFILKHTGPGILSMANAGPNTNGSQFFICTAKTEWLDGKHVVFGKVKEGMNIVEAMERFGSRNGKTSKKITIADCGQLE

Turning to “[8′-hydroxy-MeBmt]^5-Ciclosporin (peptide)”, the Binding Ratio (BR), log10 of IC50 of test compound over IC50 of cyclosporin A is 0.35 log10 ratio. Consider [Ethyl-Val]^4-Ciclosporin (peptide), for which the Binding Ratio (BR), log10 of IC50 of test compound over IC50 of cyclosporin A was 0 log10 ratio. In the case of [Ethyl-lle]^4-Ciclosporin (peptide) it was 0.1 log10 ratio.

Turning to [MeAla]^6-Ciclosporin (peptide), the Binding Ratio (BR), log10 of IC50 of test compound over IC50 of cyclosporin A was -0.4 log10 ratio.

In the case of [MeVal]^4-Ciclosporin (peptide), the Binding Ratio (BR), log10 of IC50 of test compound over IC50 of cyclosporin A was 0.1 log10 ratio. Regarding [MeVal]^5-Ciclosporin (peptide), the Binding Ratio (BR), log10 of IC50 of test compound over IC50 of cyclosporin A turned out to be 0.4 log10 ratio. As to [Melle]^4-Ciclosporin (peptide), the Binding Ratio (BR), log10 of IC50 of test compound over IC50 of cyclosporin A is -0.2 log10 ratio. As to “[dihydro-MeBmt]^1-[γ-hydroxy-MeLeu]^4-Ciclosporin (peptide)”, the Binding Ratio (BR), log10 of IC50 of test compound over IC50 of cyclosporin A is 0.1 log10 ratio. In the case of “[γ-hydroxy-MeLeu]^4-Ciclosporin (peptide)” it was 0.4 log10 ratio; in that of “[γ-hydroxy-MeLeu]^9-Ciclosporin (peptide)”, 0.15 log10 ratio.
